We go through nine molecules from patent US20210163606A1.

First the molecules themselves.
B1: aNRP2-10v5 (antibody, V domains shown)
VH: EVQLVQSGAEVKKPGATVKISCKVSGFNIKDYYIHWVQQAPGKGLEWMGRIDVEDDETKYAPKFQGRVTITADTSTDTAYMELSSLRSEDTAVYYCATPIYGSREAWFAYWGQGTLVTVSS
VL: DIQMTQSPSSLSASVGDRVTITCTASSSVSSSYLHWYQQKPGKAPKLLIYRTSNLASGVPSRFSGSGSGTDFTLTISSLQPEDFATYYCHQYYRSPPTFGGGTKVEIK
B2: aNRP2-10v13 (antibody, V domains shown)
VH: EVQLVQSGAEVKKPGATVKISCKVSGFNIKDYYVHWVQQAPGKGLEWMGRIDVHDDETKYAPKFQGRVTITADTSTDTAYMELSSLRSEDTAVYYCATPIYGAREAWFAYWGQGTLVTVSS
VL: DIQMTQSPSSLSASVGDRVTITCTASSSVSSSYLHWYQQKPGKAPKLLIYRTSNLASGVPSRFSGSGSGTDFTLTISSLQPEDFATYYCHQYYRSPPTFGGGTKVEIK
B3: aNRP2-10v10 (antibody, V domains shown)
VH: EVQLVQSGAEVKKPGATVKISCKVSGFNIKDYYVHWVQQAPGKGLEWMGRIDVEDDETKYAPKFQGRVTITADTSTDTAYMELSSLRSEDTAVYYCATPIYGAREAWFAYWGQGTLVTVSS
VL: DIQMTQSPSSLSASVGDRVTITCTASSSVSSSYLHWYQQKPGKAPKLLIYRTSNLASGVPSRFSGSGSGTDFTLTISSLQPEDFATYYCHQYYRSPPTFGGGTKVEIK
B4: aNRP2-1v3 (antibody, V domains shown)
VH: QVQLVQSGAEVKKPGASVKVSCKASGYTFTSYWMHWVRQAPGQGLEWMGAIYPGNSDTSYNQQFKGRVTMTRDTSTSTVYMELSSLRSEDTAVYYCARRGGGYFDYWGQGTLVTVSS
VL: DIQLTQSPSFLSASVGDRVTITCKASQNVGAAVAWYQQKPGKAPKLLIYSASNRYTGVPSRFSGSGSGTEFTLTISSLQPEDFATYYCQQYSSYPLLTFGGGTKVEIK
B5: aNRP2-14v10 (antibody, V domains shown)
VH: QLQLVESGGGVVQPGRSLRLSCTVSGFSLTSYGVHWVRQAPGKGLEWVGLIWSGGSTDYSPAFISRFTISEDNSKSTVYLQMNSLRAEDTAVYFCARNSYSSGYYAMDYWGQGTTVTVSS
VL: DIQLTQSPSFLSASVGDRVTITCKASQNVGTAVAWYQQKPGKAPKLLIYSASNRYTGVPSRFSGSGSGTEFTLTISSLQPEDFATYYCQQRSRYPPYTFGGGTKVEIK
B6: aNRP2-14v9 (antibody, V domains shown)
VH: QLQLVESGGGVVQPGRSLRLSCTVSGFSLTSYGVHWVRQAPGKGLEWVGLIWSGGSTDYSPAFISRFTISEDNSKSTVYLQMNSLRAEDTAVYFCARNSYSSGYYAMDYWGQGTTVTVSS
VL: DIQLTQSPSFLSASVGDRVTITCKASQNVGHAVAWYQQKPGKAPKLLIYSASNRYTGVPSRFSGSGSGTEFTLTISSLQPEDFATYYCQQYSRYPPYTFGGGTKVEIK
B7: aNRP2-2v4 (antibody, V domains shown)
VH: QVQLVQSGAEVKKPGASVKVSCKASGYTFTSYWMHWVRQAPGQGLEWMGVIHPNSASTFYNERFKTRATMTVDRSSSTAYMELSSLRSEDTAVYYCSRPGTVRRSDYWGQGTTVTVSS
VL: DVVMTQSPLSLPVTLGQPASISCRSSQNIVHSTGNTYLEWYQQRPGQSPRLLIYKVSNRFSGVPDRFSGSGSGTDFTLKISRVEAEDVGVYYCFQGSHVPWTFGGGTKVEIK
B8: aNRP2-11v7 (antibody, V domains shown)
VH: QVQLVQSGAEVKKPGASVKVSCKASGYTFTSFGISWVRQAPGQGLEWIGEIYPRSGNTYYNENFKGRATMTADKSTSTAYMELRSLRSDDTAVYYCARSSGYYGSTPFPYWGQGTLVTVSS
VL: DIQMTQSPSSLSASVGDRVTITCRASQDISNYLNWYQQKPGKAVKLLIYYTSRLHSGVPSRFSGSGSGTDYTFTISSLQPEDIATYYCQQGNTLPWTFGGGTKVEIK
B9: aNRP2-28v2/4 (antibody, V domains shown)
VH: QSVKESEGGLFKPTDTLTLTCTVSGFSLSTYSISWVRQAPGNGLEWIGIIGDAGGIIYATWAKSRSTITRSTALNTVTLKMTGLTAADTATYFCARDGTAFDIWGPGTLVTVSS
VL: AYDMTQTPASVEVVVGGTVTIKCQASQSIYSKLGWYQQKPGQPPKLLIYRASTLASGVSSRFKGSGSGTEYTLTISGVQCDDAATYYCQQDYSYINVDNIFGGGTEVVVK

One assay addresses Human NRP2 (aa23-855) with C-terminal Avi-, Myc- and His-tags (Human) (UniProt O60462). As to the kind of experiment: SPR (ProteOn XPR36), antibody captured on anti-human Fab-kappa, NRP2 as analyte, 1:1 Langmuir fit.
What is called Kd is the free concentration of one partner at which half of the binding sites on the other are occupied at equilibrium, for simple one-to-one binding. Consider B1, for which the Kd amounted to 0.2 nM.

Take B2: the equilibrium dissociation constant (Kd) amounted to 0.358 nM. On the same count and under the same terms, the value for B3 was 0.029 nM; that for B4 was 17 nM; that for B5 was 0.17 nM. Take B6: the Kd is 0.15 nM. Still for that read-out and setting: with B7 the figure was 2.7 nM; with B8, 0.95 nM.

The next assay has the same target. In words: SPR as described for Table E1 (human NRP2 antigen); the antigen for this mouse-IgG1 surrogate is not said separately.
For B9, the Kd turned out to be 0.0599 nM.
